Source: paper PMC8017132

Tests used:
[1] = biological target: activated coagulation factor XI (UniProt P03951); test: stoichiometry of inhibition titration (residual protease activity); varying ratios of AAT variant to protease incubated at ambient temperature for 2 h, residual activity determined at 37°C, line regressed to zero residual activity
[2] = biological target: activated coagulation factor XI (UniProt P03951); test: inhibition kinetics (residual protease activity on chromogenic substrate); pseudo-first-order, at least a 10:1 molar ratio of AAT variant to protease (5–75 nM), 37°C, discontinuous method; k2 = kobs divided by the initial AAT variant concentration
activated protein C = activated protein C (UniProt P04070); test: as above
factor XIIa = factor XIIa (UniProt P00748); test: as above
thrombin = thrombin (UniProt P00734); test: as above

Sequence of UniProt P03951 (P03951 19-387, chain 1 of 2): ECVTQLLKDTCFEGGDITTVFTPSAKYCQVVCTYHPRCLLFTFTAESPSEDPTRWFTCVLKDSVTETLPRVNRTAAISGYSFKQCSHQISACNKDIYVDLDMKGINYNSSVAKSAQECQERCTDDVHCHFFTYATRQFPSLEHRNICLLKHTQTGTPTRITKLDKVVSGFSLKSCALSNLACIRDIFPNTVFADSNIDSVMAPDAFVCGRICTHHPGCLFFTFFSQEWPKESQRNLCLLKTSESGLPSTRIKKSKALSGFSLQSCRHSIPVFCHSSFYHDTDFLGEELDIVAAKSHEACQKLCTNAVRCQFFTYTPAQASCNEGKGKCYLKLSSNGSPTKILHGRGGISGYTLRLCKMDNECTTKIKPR
Sequence of UniProt P03951 (P03951 388-624, chain 2 of 2): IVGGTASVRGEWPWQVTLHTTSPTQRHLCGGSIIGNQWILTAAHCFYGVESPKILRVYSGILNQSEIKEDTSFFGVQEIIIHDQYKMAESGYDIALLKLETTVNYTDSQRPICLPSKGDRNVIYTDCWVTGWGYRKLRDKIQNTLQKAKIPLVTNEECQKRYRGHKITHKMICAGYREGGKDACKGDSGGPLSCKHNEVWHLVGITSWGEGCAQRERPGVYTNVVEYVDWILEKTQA

## alpha-1 antitrypsin M358R (from UniProt P01009 25-418) (natural protein)
[1]
  SI (stoichiometry of inhibition): 2.7
[2]
  k2 (second-order rate constant of inhibition): 140000 M⁻¹ s⁻¹
Activated protein C
  k2 (second-order rate constant of inhibition): 25000 M⁻¹ s⁻¹
Factor XIIa
  k2 (second-order rate constant of inhibition): 23000 M⁻¹ s⁻¹
thrombin
  k2 (second-order rate constant of inhibition): 180000 M⁻¹ s⁻¹
